Drawing on the supplement of paper PMC10567573, this text covers protein stability index for 94 variants.

Sequences and labels used below:
B1: PI4K2A (parent)
chain: FVKDPQGRIIAVFKPKNEEPYGHL
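Further: lentivirally expressed fusions sorted by FACS into six bins by GFP to DsRed ratio, PSI derived from sequencing read proportions per bin multiplied by bin number.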

The variants in the data set derive from B1. Put plainly: protein stability index of a GFP-peptide fusion (GPS, HEK-293T) (PSI 1-6); higher = more stable. The settings on record: c terminus: a fixed tail appended.
In the case of FVKDYQGRIIAVFKPKNEEPYGHL [P5Y], the protein stability index came out at 2.28. With FVKDPQGQIIAVFKPKNEEPYGHL [R8Q], the protein stability index was 1.92.

As to FVKDPQGTIIAVFKPKNEEPYGHL [R8T], the protein stability index came out at 3.95. Next, FVKDPQGHIIAVFKPKNEEPYGHL [R8H]: 1.93. As for FVKDPQGVIIAVFKPKNEEPYGHL [R8V], the figure is 1.72; as for FVKDPQGEIIAVFKPKNEEPYGHL [R8E], 1.98. Regarding FVKDPQGLIIAVFKPKNEEPYGHL [R8L], the protein stability index came out at 1.81. On to FVKDPQGKIIAVFKPKNEEPYGHL [R8K], for which the protein stability index was found to be 1.61. Next, FVKDPQGCIIAVFKPKNEEPYGHL [R8C]: 2.37; FVKDPQGNIIAVFKPKNEEPYGHL [R8N]: 1.31; FVKDPQGAIIAVFKPKNEEPYGHL [R8A]: 2.51. Consider FVKDPQGSIIAVFKPKNEEPYGHL [R8S], for which the protein stability index is 3.87.

Consider FVKDPQGIIIAVFKPKNEEPYGHL [R8I], for which the protein stability index is 2.72. Next, FVKDPQGYIIAVFKPKNEEPYGHL [R8Y]: 1.6; FVKDPQGWIIAVFKPKNEEPYGHL [R8W]: 1.14; FVKDPQGFIIAVFKPKNEEPYGHL [R8F]: 2.27. On to FVKDPQGMIIAVFKPKNEEPYGHL [R8M], for which the protein stability index is 2.87. Next, FVKDPQGGIIAVFKPKNEEPYGHL [R8G]: 2.47; FVKDPQGRYIAVFKPKNEEPYGHL [I9Y]: 1.9. As for FVKDPQGRSIAVFKPKNEEPYGHL [I9S], the figure is 2.61; as for FVKDPQGREIAVFKPKNEEPYGHL [I9E], 2.17.

For the variant FVKDPQGRFIAVFKPKNEEPYGHL [I9F], the protein stability index was 2.01. Next, FVKDPQGRLIAVFKPKNEEPYGHL [I9L]: 2.06. Next, FVKDPQGRQIAVFKPKNEEPYGHL [I9Q]: 1.67.

On to FVKDPQGRNIAVFKPKNEEPYGHL [I9N], for which the protein stability index turned out to be 4.29. Next, FVKDPQGRKIAVFKPKNEEPYGHL [I9K]: 2.63; FVKDPQGRDIAVFKPKNEEPYGHL [I9D]: 3.44. For the variant FVKDPQGRCIAVFKPKNEEPYGHL [I9C], the protein stability index came out at 1.85. As to FVKDPQGRTIAVFKPKNEEPYGHL [I9T], the protein stability index is 2.34. Next, FVKDPQGRRIAVFKPKNEEPYGHL [I9R]: 1.59; FVKDPQGRVIAVFKPKNEEPYGHL [I9V]: 2.56. As for FVKDPQGRWIAVFKPKNEEPYGHL [I9W], the figure is 2.5; as for FVKDPQGRIIAVRKPKNEEPYGHL [F13R], 1.93. Next, FVKDPQGRIIAVEKPKNEEPYGHL [F13E]: 2.05; FVKDPQGRIIAVHKPKNEEPYGHL [F13H]: 2.24. Turning to FVKDPQGRIIAVLKPKNEEPYGHL [F13L], the protein stability index stood at 1.96. Next, FVKDPQGRIIAVDKPKNEEPYGHL [F13D]: 1.43. As for FVKDPQGRIIAVMKPKNEEPYGHL [F13M], the figure is 1.28; as for FVKDPQGRIIAVYKPKNEEPYGHL [F13Y], 2.18. Take FVKDPQGRIIAVSKPKNEEPYGHL [F13S]: the protein stability index was determined as 1.38. On to FVKDPQGRIIAVQKPKNEEPYGHL [F13Q], for which the protein stability index came out at 2.13. As for FVKDPQGRIIAVVKPKNEEPYGHL [F13V], the protein stability index was 1.92.

Regarding FVKDPQGRIIAVAKPKNEEPYGHL [F13A], the protein stability index stood at 1.55.

Turning to FVKDPQGRIIAVTKPKNEEPYGHL [F13T], the protein stability index was determined as 1.94.

On to FVKDPQGRIIAVKKPKNEEPYGHL [F13K], for which the protein stability index was 1.58. On to FVKDPQGRIIAVGKPKNEEPYGHL [F13G], for which the protein stability index stood at 1.39. As for FVKDPQGRIIAVPKPKNEEPYGHL [F13P], the figure is 2.3. Next, FVKDPQGRIIAVWKPKNEEPYGHL [F13W]: 2.13; FVKDPQGRIIAVIKPKNEEPYGHL [F13I]: 2.5; FVKDPQGRIIAVNKPKNEEPYGHL [F13N]: 1.99. As for FVKDPQGRIIAVCKPKNEEPYGHL [F13C], the figure is 2.48; as for FVKDPQKRIIAVFKPKNEEPYGHL [G7K], 3.39. As to FVKDPQIRIIAVFKPKNEEPYGHL [G7I], the protein stability index is 3. As for FVKDPQMRIIAVFKPKNEEPYGHL [G7M], the protein stability index was 3.42. Turning to FVKDPQQRIIAVFKPKNEEPYGHL [G7Q], the protein stability index was determined as 2.07.

On to FVKDPQHRIIAVFKPKNEEPYGHL [G7H], for which the protein stability index worked out at 2.79. Next, FVKDPQERIIAVFKPKNEEPYGHL [G7E]: 2.98; FVKDPQFRIIAVFKPKNEEPYGHL [G7F]: 2.74. Regarding FVKDPQRRIIAVFKPKNEEPYGHL [G7R], the protein stability index came out at 2.08. As for FVKDPQTRIIAVFKPKNEEPYGHL [G7T], the figure is 1.45; as for FVKDPQCRIIAVFKPKNEEPYGHL [G7C], 2.03. Turning to FVKDPQVRIIAVFKPKNEEPYGHL [G7V], the protein stability index turned out to be 1.73.

Take FVKDPQWRIIAVFKPKNEEPYGHL [G7W]: the protein stability index was found to be 3.45. Take FVKDPQPRIIAVFKPKNEEPYGHL [G7P]: the protein stability index was 1.81. Next, FVKDPQARIIAVFKPKNEEPYGHL [G7A]: 2.29; FVKDPQNRIIAVFKPKNEEPYGHL [G7N]: 2.23. Regarding FVKDPQDRIIAVFKPKNEEPYGHL [G7D], the protein stability index came out at 1.69. Next, FVKDPQGRIIIVFKPKNEEPYGHL [A11I]: 1.37; FVKDPQGRIIVVFKPKNEEPYGHL [A11V]: 1.63; FVKDPQGRIIHVFKPKNEEPYGHL [A11H]: 1.41. As for FVKDPQGRIICVFKPKNEEPYGHL [A11C], the figure is 1.27; as for FVKDPQGRIILVFKPKNEEPYGHL [A11L], 1.61; as for FVKDPQGRIIRVFKPKNEEPYGHL [A11R], 3.16. Regarding FVKDPQGRIIMVFKPKNEEPYGHL [A11M], the protein stability index was found to be 2.01. Take FVKDPQGRIIYVFKPKNEEPYGHL [A11Y]: the protein stability index was found to be 1.32. In the case of FVKDPQGRIIQVFKPKNEEPYGHL [A11Q], the protein stability index is 3.56. As for FVKDPQGRIIWVFKPKNEEPYGHL [A11W], the figure is 2.88; as for FVKDPQGRIIEVFKPKNEEPYGHL [A11E], 2.07; as for FVKDPQGRIIDVFKPKNEEPYGHL [A11D], 2.94. FVKDPQGRIIKVFKPKNEEPYGHL [A11K]: the protein stability index came to 2.58. As for FVKDPQGRIIFVFKPKNEEPYGHL [A11F], the figure is 2.49; as for FVKDPQGRIIPVFKPKNEEPYGHL [A11P], 3.18; as for FVKDPQGRIIGVFKPKNEEPYGHL [A11G], 2.72. Regarding FVKDPQGRIIAVFEPKNEEPYGHL [K14E], the protein stability index was determined as 2.09. As for FVKDPQGRIIAVFFPKNEEPYGHL [K14F], the figure is 2.67.

As to FVKDPQGRIIAVFNPKNEEPYGHL [K14N], the protein stability index stood at 1.13. As for FVKDPQGRIIAVFHPKNEEPYGHL [K14H], the figure is 2.03; as for FVKDPQGRIIAVFIPKNEEPYGHL [K14I], 1.97; as for FVKDPQGRIIAVFQPKNEEPYGHL [K14Q], 2.2. Next, FVKDPQGRIIAVFSPKNEEPYGHL [K14S]: 3.13; FVKDPQGRIIAVFWPKNEEPYGHL [K14W]: 1.78; FVKDPQGRIIAVFRPKNEEPYGHL [K14R]: 1.18.

For the variant FVKDPQGRIIAVFMPKNEEPYGHL [K14M], the protein stability index is 3.22. As for FVKDPQGRIIAVFCPKNEEPYGHL [K14C], the figure is 2.56.
